B1: Azoarcus group I ribozyme (parent)
chain: GUGCCUUGCGCCGGGAAACCACGCAAGGGAUGGUGUCAAAUUCGGCGAAACCUAAGCGCCCGCCCGGGCGUAUGGCAACGCCGAGCCAAGCUUCGGCGCCUGCGCCGAUGAAGGUGUAGAGACUAGACGGCACCCACCUAAGGCAAACGCUAUGGUGAAGGCAUAGUCCAGGGAGUGGCGAAAGUCACACAAACCGG

This series covers variants of B1. Put plainly: reverse-splicing fitness (ratio to wild type); higher = more active; in vitro selection; Mg2+ level not given. In a few lines:
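An in vitro group I ribozyme library with randomized positions was T7-transcribed and gel-purified. In triplicate, 10 pmol RNA in EPPS pH 7.5 was reacted with 50 pmoles of a 30-nt RNA substrate for 1 h at 37 °C across several added MgCl2 levels (1–48 mM), then stopped with EDTA. Products were reverse transcribed from a substrate-complementary primer, PCR-amplified and sequenced (HiSeq 4000). Fitness is a variant's read proportion after selection over that before, normalised to wild type.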
As to GUGCCUUGCGCCGGGAAACCACGCAAGGGAUGGUGUCAAAUUCGGCGAAACCUAAGCGCCCGCCCGGGCGUAUGGCAACGCAGAGCCAAGCUUCGGCGCCUGCGCCGAUGUAGGUGUAGAGACUAGACGGCACCCACCUAAGGCCAACGCUAUGGUGAAGGCAUAGUCUAGGGAGCGGCGAAAGUCACACAAACCGG [C82A A111U A145C C169U U176C], the reverse-splicing fitness was determined as 0.0102.
For GUGCCUUGCGCCGGGAAACCACGCAAGGGAUGGUGUCAAAUUCGGCGAAACCUAAGCGCCCGCCCGGGCGUAUGGCAACGCAGAGCCAAGCUUCGGCGCCUGCGCCGAUGUAGGUGUAGAGACUAGACGGCACCCACCUAAGGCCAACGCUAUGGUGAAGGCAUAGUCUAGGGAGGGGCGAAAGUCACACAAACCGG [C82A A111U A145C C169U U176G], the reverse-splicing fitness is 0.00582.
With GUGCCUUGCGCCGGGAAACCACGCAAGGGAUGGUGUCAAAUUCGGCGAAACCUAAGCGCCCGCCCGGGCGUAUGGCAACGCAGAGCCAAGCUUCGGCGCCUGCGCCGAUGUAGGUGUAGAGACUAGACGGCACCCACCUAAGGCCAACGCUAUGGUGAAGGCAUAGUCUAGGGAGAGGCGAAAGUCACACAAACCGG [C82A A111U A145C C169U U176A], the reverse-splicing fitness stood at 0.016.
As for GUGCCUUGCGCCGGGAAACCACGCAAGGGAUGGUGUCAAAUUCGGCGAAACCUAAGCGCCCGCCCGGGCGUAUGGCAACGCAGAGCCAAGCUUCGGCGCCUGCGCCGAUGUAGGUGUAGAGACUAGACGGCACCCACCUAAGGCGAACGAUAUGGUGAAGGCAUAGUCAAGGGAGAGGCGAAAGUCACACAAACCGG [C82A A111U A145G C150A C169A U176A], the figure is 0.0197.
For the variant GUGCCUUGCGCCGGGAAACCACGCAAGGGAUGGUGUCAAAUUCGGCGAAACCUAAGCGCCCGCCCGGGCGUAUGGCAACGCAGAGCCAAGCUUCGGCGCCUGCGCCGAUGUAGGUGUAGAGACUAGACGGCACCCACCUAAGGCGAACGAUAUGGUGAAGGCAUAGUCAAGGGAGCGGCGAAAGUCACACAAACCGG [C82A A111U A145G C150A C169A U176C], the reverse-splicing fitness turned out to be 0.0242.
For the variant GUGCCUUGCGCCGGGAAACCACGCAAGGGAUGGUGUCAAAUUCGGCGAAACCUAAGCGCCCGCCCGGGCGUAUGGCAACGCAGAGCCAAGCUUCGGCGCCUGCGCCGAUGUAGGUGUAGAGACUAGACGGCACCCACCUAAGGCGAACGAUAUGGUGAAGGCAUAGUCAAGGGAGGGGCGAAAGUCACACAAACCGG [C82A A111U A145G C150A C169A U176G], the reverse-splicing fitness was 0.00853.
As to GUGCCUUGCGCCGGGAAACCACGCAAGGGAUGGUGUCAAAUUCGGCGAAACCUAAGCGCCCGCCCGGGCGUAUGGCAACGCAGAGCCAAGCUUCGGCGCCUGCGCCGAUGUAGGUGUAGAGACUAGACGGCACCCACCUAAGGCCAACGCUAUGGUGAAGGCAUAGUCGAGGGAGGGGCGAAAGUCACACAAACCGG [C82A A111U A145C C169G U176G], the reverse-splicing fitness came to 0.00654.
On to GUGCCUUGCGCCGGGAAACCACGCAAGGGAUGGUGUCAAAUUCGGCGAAACCUAAGCGCCCGCCCGGGCGUAUGGCAACGCAGAGCCAAGCUUCGGCGCCUGCGCCGAUGUAGGUGUAGAGACUAGACGGCACCCACCUAAGGCCAACGCUAUGGUGAAGGCAUAGUCGAGGGAGAGGCGAAAGUCACACAAACCGG [C82A A111U A145C C169G U176A], for which the reverse-splicing fitness was found to be 0.0281.
For GUGCCUUGCGCCGGGAAACCACGCAAGGGAUGGUGUCAAAUUCGGCGAAACCUAAGCGCCCGCCCGGGCGUAUGGCAACGCAGAGCCAAGCUUCGGCGCCUGCGCCGAUGUAGGUGUAGAGACUAGACGGCACCCACCUAAGGCCAACGCUAUGGUGAAGGCAUAGUCGAGGGAGCGGCGAAAGUCACACAAACCGG [C82A A111U A145C C169G U176C], the reverse-splicing fitness stood at 0.0185.
As for GUGCCUUGCGCCGGGAAACCACGCAAGGGAUGGUGUCAAAUUCGGCGAAACCUAAGCGCCCGCCCGGGCGUAUGGCAACGCAGAGCCAAGCUUCGGCGCCUGCGCCGAUGUAGGUGUAGAGACUAGACGGCACCCACCUAAGGCGAACGAUAUGGUGAAGGCAUAGUCUAGGGAGAGGCGAAAGUCACACAAACCGG [C82A A111U A145G C150A C169U U176A], the figure is 0.0158; as for GUGCCUUGCGCCGGGAAACCACGCAAGGGAUGGUGUCAAAUUCGGCGAAACCUAAGCGCCCGCCCGGGCGUAUGGCAACGCAGAGCCAAGCUUCGGCGCCUGCGCCGAUGUAGGUGUAGAGACUAGACGGCACCCACCUAAGGCGAACGAUAUGGUGAAGGCAUAGUCUAGGGAGCGGCGAAAGUCACACAAACCGG [C82A A111U A145G C150A C169U U176C], 0.0161; as for GUGCCUUGCGCCGGGAAACCACGCAAGGGAUGGUGUCAAAUUCGGCGAAACCUAAGCGCCCGCCCGGGCGUAUGGCAACGCAGAGCCAAGCUUCGGCGCCUGCGCCGAUGUAGGUGUAGAGACUAGACGGCACCCACCUAAGGCGAACGCUAUGGUGAAGGCAUAGUCCAGGGAGUGGCGAAAGUCACACAAACCGG [C82A A111U A145G], 0.313.
As for GUGCCUUGCGCCGGGAAACCACGCAAGGGAUGGUGUCAAAUUCGGCGAAACCUAAGCGCCCGCCCGGGCGUAUGGCAACGCAGAGCCAAGCUUCGGCGCCUGCGCCGAUGUAGGUGUAGAGACUAGACGGCACCCACCUAAGGCGAACGAUAUGGUGAAGGCAUAGUCUAGGGAGUGGCGAAAGUCACACAAACCGG [C82A A111U A145G C150A C169U], the figure is 0.0111; as for GUGCCUUGCGCCGGGAAACCACGCAAGGGAUGGUGUCAAAUUCGGCGAAACCUAAGCGCCCGCCCGGGCGUAUGGCAACGCAGAGCCAAGCUUCGGCGCCUGCGCCGAUGUAGGUGUAGAGACUAGACGGCACCCACCUAAGGCGAACGAUAUGGUGAAGGCAUAGUCGAGGGAGUGGCGAAAGUCACACAAACCGG [C82A A111U A145G C150A C169G], 0.00916.
Then GUGCCUUGCGCCGGGAAACCACGCAAGGGAUGGUGUCAAAUUCGGCGAAACCUAAGCGCCCGCCCGGGCGUAUGGCAACGCAGAGCCAAGCUUCGGCGCCUGCGCCGAUGUAGGUGUAGAGACUAGACGGCACCCACCUAAGGCGAACGAUAUGGUGAAGGCAUAGUCAAGGGAGUGGCGAAAGUCACACAAACCGG [C82A A111U A145G C150A C169A], with 0.0117.

These data come from the RNAGym collection of RNA variant scans (doi:10.1093/molbev/msab373).
